Reference: US20250011428A1 (Novartis, published 2025)
Changes are numbered by the printed parent chain.

B1: CD3_2 (antibody, human IgG1, lambda)
heavy: EVQLVESGGGLVQPGGSLKLSCAASGFTFNTYAMNWVRQASGKGLEWVGRIRSKYNNYATYYADSVKDRFTISRDDSKSTLYLQMNSLKTEDTAVYYCVRHGNFGNSYVSWFAYWGQGTLVTVSSASTKGPSVFPLAPSSKSTSGGTAALGCLVKDYFPEPVTVSWNSGALTSGVHTFPAVLQSSGLYSLSSVVTVPSSSLGTQTYICNVNHKPSNTKVDKRVEPKSCDKTHTCPPCPAPELCCHPSVFLFPPKPKDTLMISRTPEVTCVVVGLRHEDPEVKFNWYVDGVEVHNAKTKPREEQYCGCYRVVSVLTVLHQDWLNGKEYKCKVSNKALPAPIEKTISKAKGQPREPQVYTLPPSRDELTKNQVSLTCLVKGFYPSDIAVEWESNGQPENNYKTTPPVLDSDGSFFLYSKLTVDKSRWQQGNVFSCSVMHEALHNHYTQKSLSLSPGK
light: QAVVTQEPSLTVSPGGTVTLTCRSSTGAVTTSNYANWVQQKPGQAPRGLIGGTNKRAPWTPARFSGSLLGDKAALTLSGAQPEDEAEYFCALWYSNLWVFGGGTKLTVLGQPKAAPSVTLFPPSSEELQANKATLVCLISDFYPGAVTVAWKADSSPVKAGVETTTPSKQSNNKYAASSYLSLTPEQWKSHRSYSCQVTHEGSTVEKTVAPTECS
notes: hIgG1
B2: CD3_1 (antibody, human IgG1, lambda)
heavy: B1 heavy with S247R, V272T, H276D, R309S
light: B1 light
notes: hIgG1
B3: CD3_3_YTE (antibody, human IgG1, lambda)
heavy: B1 heavy with M260Y, S262T, T264E, V272T, H276D
light: B1 light
notes: hIgG1
B4: CD3_1_YTE (antibody, human IgG1, lambda)
heavy: B1 heavy with S247R, M260Y, S262T, T264E, V272T, H276D, R309S
light: B1 light
notes: hIgG1
B5: CD3_4 (antibody, human IgG1, lambda)
heavy: B1 heavy with G273D, L274V, R275S
light: B1 light
notes: hIgG1
B6: CD3_6_YTE (antibody, human IgG1, lambda)
heavy: B1 heavy with H245G, M260Y, S262T, T264E, G273D, L274V, R275S, C305N, G306S, C307T
light: B1 light
notes: hIgG1
B7: CD3_4_YTE (antibody, human IgG1, lambda)
heavy: B1 heavy with M260Y, S262T, T264E, G273D, L274V, R275S
light: B1 light
notes: hIgG1
B8: CD3_WT_YTE (antibody, human IgG1, lambda)
heavy: EVQLVESGGGLVQPGGSLKLSCAASGFTFNTYAMNWVRQASGKGLEWVGRIRSKYNNYATYYADSVKDRFTISRDDSKSTLYLQMNSLKTEDTAVYYCVRHGNFGNSYVSWFAYWGQGTLVTVSSASTKGPSVFPLAPSSKSTSGGTAALGCLVKDYFPEPVTVSWNSGALTSGVHTFPAVLQSSGLYSLSSVVTVPSSSLGTQTYICNVNHKPSNTKVDKRVEPKSCDKTHTCPPCPAPELLGGPSVFLFPPKPKDTLYITREPEVTCVVVDVSHEDPEVKFNWYVDGVEVHNAKTKPREEQYNSTYRVVSVLTVLHQDWLNGKEYKCKVSNKALPAPIEKTISKAKGQPREPQVYTLPPSRDELTKNQVSLTCLVKGFYPSDIAVEWESNGQPENNYKTTPPVLDSDGSFFLYSKLTVDKSRWQQGNVFSCSVMHEALHNHYTQKSLSLSPGK
light: B1 light
notes: hIgG1
B9: CD3_DANAPA (antibody, human IgG1, lambda, N297A)
heavy: B8 heavy with Y260M, T262S, E264T, D273A, N305A, P337A
light: B1 light
notes: hIgG1; silencing benchmark
B10: CD3_3 (antibody, human IgG1, lambda)
heavy: B1 heavy with V272T, H276D
light: B1 light
notes: hIgG1
B11: CD3_7_YTE (antibody, human IgG1, lambda)
heavy: B8 heavy with N305C, T307C
light: B1 light
notes: hIgG1
B12: CD3_5_YTE (antibody, human IgG1, lambda)
heavy: B8 heavy with L243C, G244C, N305C, T307C
light: B1 light
notes: hIgG1
B13: CD3_9_YTE (antibody, human IgG1, lambda)
heavy: B8 heavy with L243C
light: B1 light
notes: hIgG1
B14: CD3_9 (antibody, human IgG1, lambda)
heavy: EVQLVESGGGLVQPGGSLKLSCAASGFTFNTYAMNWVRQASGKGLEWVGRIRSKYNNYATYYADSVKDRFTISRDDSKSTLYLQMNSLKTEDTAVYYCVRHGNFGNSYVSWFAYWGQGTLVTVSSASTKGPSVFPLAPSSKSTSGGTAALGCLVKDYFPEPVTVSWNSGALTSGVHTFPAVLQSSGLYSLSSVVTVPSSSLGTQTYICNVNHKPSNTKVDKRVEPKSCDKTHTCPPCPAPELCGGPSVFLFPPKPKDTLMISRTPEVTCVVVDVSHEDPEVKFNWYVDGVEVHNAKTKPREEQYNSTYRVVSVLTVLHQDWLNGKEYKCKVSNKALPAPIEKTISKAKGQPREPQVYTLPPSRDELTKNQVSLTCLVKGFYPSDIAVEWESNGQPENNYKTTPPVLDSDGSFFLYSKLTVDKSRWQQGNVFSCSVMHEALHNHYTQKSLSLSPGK
light: B1 light
notes: hIgG1
B15: CD3_8 (antibody, human IgG1, lambda)
heavy: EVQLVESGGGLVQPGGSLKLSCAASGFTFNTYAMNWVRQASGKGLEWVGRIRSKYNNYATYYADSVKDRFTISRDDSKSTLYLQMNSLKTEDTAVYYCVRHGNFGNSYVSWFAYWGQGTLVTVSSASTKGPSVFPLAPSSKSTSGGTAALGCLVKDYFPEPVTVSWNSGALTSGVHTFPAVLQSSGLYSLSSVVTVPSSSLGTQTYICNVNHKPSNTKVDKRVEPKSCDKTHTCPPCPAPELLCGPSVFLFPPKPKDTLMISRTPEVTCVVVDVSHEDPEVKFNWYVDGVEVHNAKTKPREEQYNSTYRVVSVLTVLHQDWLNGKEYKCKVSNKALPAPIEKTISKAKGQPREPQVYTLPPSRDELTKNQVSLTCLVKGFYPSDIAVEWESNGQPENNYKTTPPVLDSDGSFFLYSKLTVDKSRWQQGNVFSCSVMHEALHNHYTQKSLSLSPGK
light: B1 light
notes: hIgG1
B16: CD3_10 (antibody, human IgG1, lambda)
heavy: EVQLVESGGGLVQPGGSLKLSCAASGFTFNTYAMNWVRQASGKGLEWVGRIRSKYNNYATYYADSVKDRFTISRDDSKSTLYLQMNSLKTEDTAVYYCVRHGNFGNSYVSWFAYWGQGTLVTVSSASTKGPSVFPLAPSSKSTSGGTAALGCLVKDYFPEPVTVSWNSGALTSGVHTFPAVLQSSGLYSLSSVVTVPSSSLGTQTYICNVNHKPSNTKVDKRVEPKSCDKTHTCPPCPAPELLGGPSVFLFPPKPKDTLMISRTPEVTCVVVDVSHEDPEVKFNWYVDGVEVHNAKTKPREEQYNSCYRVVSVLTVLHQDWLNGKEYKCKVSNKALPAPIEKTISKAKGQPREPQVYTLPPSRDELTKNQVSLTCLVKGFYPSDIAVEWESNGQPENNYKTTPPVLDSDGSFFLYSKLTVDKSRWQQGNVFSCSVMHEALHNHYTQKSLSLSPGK
light: B1 light
notes: hIgG1
B17: CD3_11_YTE (antibody, human IgG1, lambda)
heavy: B8 heavy with N305C
light: B1 light
notes: hIgG1

Molecular target: T1, hCD3epsilon-FC antigen (human, UniProt P07766 23-126)
T1 construct: immobilized by amine coupling on CM5; also called human CD3epsilon
Test: SPR Biacore T200; hCD3epsilon-FC amine-coupled on CM5, IgG as analyte
Set-up: unit not given here

T1 sequence (P07766 23-126 limits assumed): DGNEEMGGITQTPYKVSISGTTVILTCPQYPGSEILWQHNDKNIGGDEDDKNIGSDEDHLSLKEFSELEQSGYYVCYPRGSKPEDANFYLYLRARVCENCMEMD

Row | Binder | Maximum response at 125 nM hIgG1
1 | B1 | 386
2 | B2 | 371
3 | B3 | 371
4 | B4 | 371
5 | B5 | 470
6 | B6 | 340
7 | B7 | 427
8 | B8 | 342
9 | B9 | 392
10 | B10 | 375
11 | B11 | 367
12 | B12 | 322

Molecular target: hC1q (human, UniProt P02745 23-245; P02746 28-253; P02747 29-245)
Test: SPR Biacore T200; IgG amine-coupled on CM5, hC1q as analyte; response normalized to parental (=100)
Protocol: (§1) Kinetics and binding capacity were measured on a BIAcore® T200 instrument (GE Healthcare, Glattbrugg, Switzerland) at room temperature, with proteins diluted in running buffer 10 mM NaP, 150 mM NaCl, 0.05% Tween 20, pH7.6. A CM5 sensor chip (Sensor Chip SA, GE Healthcare Life Sciences) was used to immobilized engineered immunoglobulins by amine coupling. Then, recombinant human hFcγR1a, or recombinant human hFcγR3a (F158V), or recombinant human hFcRn, or hC1q was used as the analyte.
(§2) Binding data were acquired by subsequent injection of analyte dilution series on the reference and measuring flow cells. Zero concentration samples (running buffer only) were included to allow double referencing during data evaluation. For data evaluation, doubled referenced sensorgrams were analyzed and the maximum response reached during the experiment was monitored. Maximum response describes the binding capacity of the surface in terms of the response at saturation. Finally, measured maximum responses were normalized to the one measured using parental immunoglobulin (not engineered).

hC1q, sequence (P02745 23-245 limits assumed, chain 1 of 3): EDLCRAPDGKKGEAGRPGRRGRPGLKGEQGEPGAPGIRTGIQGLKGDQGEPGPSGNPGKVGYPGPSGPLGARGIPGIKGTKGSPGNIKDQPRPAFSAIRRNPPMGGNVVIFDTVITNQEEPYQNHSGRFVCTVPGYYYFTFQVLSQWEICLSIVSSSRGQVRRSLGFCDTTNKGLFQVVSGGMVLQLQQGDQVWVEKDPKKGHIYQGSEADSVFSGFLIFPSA
hC1q, sequence (P02746 28-253 limits assumed, chain 2 of 3): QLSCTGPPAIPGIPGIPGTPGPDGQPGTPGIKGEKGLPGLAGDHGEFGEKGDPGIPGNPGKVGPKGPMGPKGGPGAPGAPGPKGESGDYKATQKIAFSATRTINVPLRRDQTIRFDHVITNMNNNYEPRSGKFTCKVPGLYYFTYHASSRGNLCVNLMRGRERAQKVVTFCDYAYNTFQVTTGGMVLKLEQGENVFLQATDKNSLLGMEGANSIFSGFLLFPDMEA
hC1q, sequence (P02747 29-245 limits assumed, chain 3 of 3): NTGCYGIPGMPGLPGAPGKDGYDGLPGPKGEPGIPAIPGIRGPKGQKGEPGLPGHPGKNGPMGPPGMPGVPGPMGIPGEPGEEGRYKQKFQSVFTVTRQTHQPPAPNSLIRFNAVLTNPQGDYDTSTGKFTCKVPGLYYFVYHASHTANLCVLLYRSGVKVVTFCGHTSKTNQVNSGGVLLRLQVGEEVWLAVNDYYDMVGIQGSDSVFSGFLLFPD

Row | Binder | Maximum response at 20 nM hC1q (RU)
13 | B2 | 5
14 | B13 | 4
15 | B14 | 10
16 | B15 | 1
17 | B16 | 3
18 | B9 | 1
19 | B17 | 1

Molecular target: T2, recombinant human hFcRn (human, UniProt P55899 24-297; P61769 21-119)
T2 construct: FcRn is normally a heterodimer with it
Test: SPR Biacore T200; IgG amine-coupled on CM5, hFcRn as analyte; response normalized to parental (=100)
Protocol: as §1, §2

T2 sequence (P55899 24-297 limits assumed, chain 1 of 2): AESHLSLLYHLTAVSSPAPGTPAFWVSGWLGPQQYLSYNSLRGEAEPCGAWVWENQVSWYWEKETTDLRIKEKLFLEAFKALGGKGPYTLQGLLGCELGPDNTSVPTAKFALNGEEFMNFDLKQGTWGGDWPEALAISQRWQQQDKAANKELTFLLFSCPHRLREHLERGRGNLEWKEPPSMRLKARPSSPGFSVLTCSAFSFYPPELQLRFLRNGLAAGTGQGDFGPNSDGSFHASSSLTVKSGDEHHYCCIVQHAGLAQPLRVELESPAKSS
T2 sequence (P61769 21-119 limits assumed, chain 2 of 2): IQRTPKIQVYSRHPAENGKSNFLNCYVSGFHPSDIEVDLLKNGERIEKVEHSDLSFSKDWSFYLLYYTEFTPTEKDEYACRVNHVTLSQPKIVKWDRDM

Row | Binder | Maximum response at 1840 nM hFcRn (RU)
20 | B4 | 290
21 | B13 | 696
22 | B6 | 720
23 | B8 | 586
24 | B14 | 122
25 | B15 | 126
26 | B16 | 126
27 | B17 | 230
28 | B11 | 284
29 | B12 | 340

Molecular target: T3, recombinant human hFcγR1a (human, UniProt P12314 16-288, limits assumed)
T3 construct: recombinant, analyte in SPR; also called FcγRI
Test: SPR Biacore T200; IgG amine-coupled on CM5, receptor as analyte; response normalized to parental (=100);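 also: measured at room temperature in pH 7.6 phosphate buffer with Tween 20, double-referenced sensorgrams, maximum response taken as binding capacity at saturation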
Protocol: as §1, §2

T3 sequence (P12314 16-288 limits assumed): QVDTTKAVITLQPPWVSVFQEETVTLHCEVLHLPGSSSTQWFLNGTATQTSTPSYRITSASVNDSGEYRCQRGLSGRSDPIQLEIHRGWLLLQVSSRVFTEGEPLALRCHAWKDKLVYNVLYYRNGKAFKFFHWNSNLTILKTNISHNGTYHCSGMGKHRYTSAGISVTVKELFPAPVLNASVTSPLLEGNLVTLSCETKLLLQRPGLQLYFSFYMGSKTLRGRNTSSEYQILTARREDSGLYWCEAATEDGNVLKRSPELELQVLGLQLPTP

Row | Binder | Maximum response at 100 nM hFcγR1a (RU)
30 | B1 | 5
31 | B2 | 2
32 | B3 | 7
33 | B4 | 6
34 | B13 | 2
35 | B5 | 4
36 | B6 | 10
37 | B7 | 4
38 | B8 | 97
39 | B14 | 2
40 | B15 | 2
41 | B16 | 18
42 | B9 | 6
43 | B10 | 3
44 | B17 | 12
45 | B11 | 31
46 | B12 | 7

Molecular target: T4, recombinant human hFcγR3a (F158V) (human, UniProt P08637 17-208)
T4 construct: also called FcγRIII
Test: as above
Protocol: as §1, §2

T4 sequence (P08637 17-208 F176V): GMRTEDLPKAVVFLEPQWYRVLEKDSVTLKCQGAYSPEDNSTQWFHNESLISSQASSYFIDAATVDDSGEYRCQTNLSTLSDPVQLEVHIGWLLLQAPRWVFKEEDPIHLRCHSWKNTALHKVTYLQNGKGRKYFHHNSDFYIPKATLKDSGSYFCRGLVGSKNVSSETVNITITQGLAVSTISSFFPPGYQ

Row | Binder | Maximum response at 300 nM hFcγR3a F158V (RU)
47 | B1 | 20
48 | B2 | 10
49 | B3 | 10
50 | B4 | 20
51 | B5 | 10
52 | B6 | 15
53 | B7 | 10
54 | B8 | 71
55 | B9 | 10
56 | B10 | 2
57 | B11 | 19
58 | B12 | 17

Molecular target: T1, hCD3epsilon-FC antigen
Test: SPR Biacore T200; hCD3epsilon-FC amine-coupled on CM5, IgG as analyte; 1:1 model, apparent KD (bivalent analyte)
Protocol: A CM5 sensor chip (Sensor Chip SA, GE Healthcare Life Sciences) was used to immobilize hCD3epsilon-FC antigen by amine coupling. Then, engineered anti-CD3 hIgG1 were used as the analyte.
Binding data were acquired by subsequent injection of analyte dilution series on the reference and measuring flow cells. Zero concentration samples (running buffer only) were included to allow double referencing during data evaluation. For data evaluation, doubled referenced sensorgrams were analyzed by applying a 1:1 binding model analysis to generate the equilibrium dissociation constant (KD). Binding constant described Table 7 are considered as apparent KD since immunoglobulins used as analyte are bivalent for the immobilized antigen. In addition, maximum response reached during the experiment was monitored. Maximum response describes the binding capacity of the surface in terms of the response at saturation. Finally, measured maximum responses were normalized to the one measured using parental immunoglobulin (not engineered).

Row | Binder | Kd [nM]
59 | B1 | 2.24
60 | B2 | 2.06
61 | B3 | 2.1
62 | B4 | 2.09
63 | B5 | 3.38
64 | B6 | 2.42
65 | B7 | 2.74
66 | B8 | 2.34
67 | B9 | 3.27
68 | B10 | 2.04
69 | B11 | 2.31
70 | B12 | 3.74
